Earlier results on one substance are cited in patent publication US20250205311A1, “PHARMACEUTICAL COMPOSITIONS OF SEMAGLUTIDE AND THE METHODS OF USE THEREOF” (PENTIDE THERAPEUTICS LIMITED, priority 2022, published 2025).

The conditions of the series: oral tablet.

In the case of “N6,26-{18-[N-(17-carboxyheptadecanoyl)-L-glutamyl]-1 0-oxo-3,6, 12, 15-tetraoxa-9, 18-diazaoctadecanoyl}-[8-(2-amino-2-propanoic acid), 34-L-arginine] human glucagon-like peptide 1 (7-37) [semaglutide]”, the oral bioavailability is 0.4-1%.
